Laboratory results reported in ChEMBL document CHEMBL1671804, “Normal and abnormal heme biosynthesis. Part 7. Synthesis and metabolism of coproporphyrinogen-III analogues with acetate or butyrate side chains on rings C and D. Development of a modified model for the active site of coproporphyrinogen oxidase” (Bioorg Med Chem, 2011).

T1: Oxygen-dependent coproporphyrinogen-III oxidase, mitochondrial (Homo sapiens) (UniProt P36551)
T1 sequence (whole entry): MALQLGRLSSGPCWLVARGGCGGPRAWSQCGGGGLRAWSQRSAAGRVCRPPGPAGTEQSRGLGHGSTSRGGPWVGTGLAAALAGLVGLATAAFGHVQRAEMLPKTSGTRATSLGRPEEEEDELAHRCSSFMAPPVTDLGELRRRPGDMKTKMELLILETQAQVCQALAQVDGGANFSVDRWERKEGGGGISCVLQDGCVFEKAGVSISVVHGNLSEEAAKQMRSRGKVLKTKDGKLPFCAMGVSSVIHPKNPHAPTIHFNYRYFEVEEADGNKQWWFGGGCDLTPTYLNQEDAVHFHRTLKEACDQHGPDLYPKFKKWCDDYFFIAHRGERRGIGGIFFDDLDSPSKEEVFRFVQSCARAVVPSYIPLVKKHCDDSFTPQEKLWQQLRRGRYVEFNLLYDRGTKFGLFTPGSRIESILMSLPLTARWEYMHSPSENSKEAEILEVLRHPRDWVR


Assays:
[1] = biological target: T1, Oxygen-dependent coproporphyrinogen-III oxidase, mitochondrial (Homo sapiens); assay: Activity at recombinant human CPO assessed as product formation after 30 mins
[2] = tested on: Uroporphyrinogen decarboxylase (Gallus gallus); assay: Activity at chicken red cell hemolysate URO-D assessed as product formation after 150 mins
[3] = substrate: Cc1c2[nH]c(c1CCC(=O)O)Cc1[nH]c(c(CCC(=O)O)c1C)Cc1[nH]c(c(CC(=O)O)c1C)Cc1[nH]c(c(C)c1CC(=O)O)C2; assay: (§1) Activity at recombinant human CPO
[4] = substrate: Cc1c2[nH]c(c1CCC(=O)O)Cc1[nH]c(c(CCC(=O)O)c1C)Cc1[nH]c(c(CCCC(=O)O)c1C)Cc1[nH]c(c(C)c1CCCC(=O)O)C2; assay: as §1
[5] = substrate: Cc1c2[nH]c(c1CCC(=O)O)Cc1[nH]c(c(CCC(=O)O)c1C)Cc1[nH]c(c(CCC(=O)O)c1C)Cc1[nH]c(c(C)c1CCC(=O)O)C2; assay: as §1

Row | Molecule | Activity [1] [%] | Activity [2] [%] | Km [3] [µM] | Km [4] [µM] | Km [5] [µM]
1 | Cc1c2[nH]c(c1CCC(=O)O)Cc1[nH]c(c(CCC(=O)O)c1C)Cc1[nH]c(c(CC(=O)O)c1C)Cc1[nH]c(c(C)c1CC(=O)O)C2 | 35.7 | 49.5 | – | – | –
2 | Oxygen-dependent coproporphyrinogen-III oxidase, mitochondrial (Homo sapiens), P36551 (protein) MALQLGRLSSGPCWLVARGGCGGPRAWSQCGGGGLRAWSQRSAAGRVCRPPGPAGTEQSRGLGHGSTSRGGPWVGTGLAAALAGLVGLATAAFGHVQRAEMLPKTSGTRATSLGRPEEEEDELAHRCSSFMAPPVTDLGELRRRPGDMKTKMELLILETQAQVCQALAQVDGGANFSVDRWERKEGGGGISCVLQDGCVFEKAGVSISVVHGNLSEEAAKQMRSRGKVLKTKDGKLPFCAMGVSSVIHPKNPHAPTIHFNYRYFEVEEADGNKQWWFGGGCDLTPTYLNQEDAVHFHRTLKEACDQHGPDLYPKFKKWCDDYFFIAHRGERRGIGGIFFDDLDSPSKEEVFRFVQSCARAVVPSYIPLVKKHCDDSFTPQEKLWQQLRRGRYVEFNLLYDRGTKFGLFTPGSRIESILMSLPLTARWEYMHSPSENSKEAEILEVLRHPRDWVR | – | – | 6.8 | 0.76 | 0.68
